Results on 6 molecules are retold here after publication PMC7279403, “Zygotic Vsx1 Plays a Key Role in Defining V2a Interneuron Sub-Lineage by Directly Repressing tal1 Transcription in Zebrafish”.

Data set [1] deals with T1, Vsx1 homeodomain (Vsx1-Homeodomain-His) (zebrafish, UniProt O42250 132-224). Nature of the data set: competition; 500-fold or more excess against biotin site 14 probe; no competition; LightShift Chemiluminescent EMSA kit (Pierce), 6% native PAGE; binding buffer as in He et al. [23], salt, pH and temperature not given. Conditions: protein: recombinant; tags: His in the Results; label: none.
T1 sequence (O42250 132-224): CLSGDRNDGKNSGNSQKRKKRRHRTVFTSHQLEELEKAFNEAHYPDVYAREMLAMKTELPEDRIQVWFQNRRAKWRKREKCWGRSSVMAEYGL

Data set [2] has as its target T1, Vsx1 homeodomain (Vsx1-Homeodomain-His). Nature of the data set: EMSA; LightShift Chemiluminescent EMSA kit (Pierce), 6% native PAGE; binding buffer as in He et al. [23], salt, pH and temperature not given. Conditions: protein: recombinant; tags: His in the Results; label: biotin 5' end (labeled probe).
Data set [3] has the same target. Nature of the data set: competition; 500-fold or more excess against biotin site 12 probe; no competition; LightShift Chemiluminescent EMSA kit (Pierce), 6% native PAGE; binding buffer as in He et al. [23], salt, pH and temperature not given. Conditions: protein: recombinant; tags: His in the Results; label: none.
The target is the same in data set [4]. Nature of the data set: competition; 500-fold excess against biotin site 12 probe; only weak complex left; LightShift Chemiluminescent EMSA kit (Pierce), 6% native PAGE; binding buffer as in He et al. [23], salt, pH and temperature not given. Conditions: protein: recombinant; tags: His in the Results; label: none.
For data set [5] the target is unchanged. Nature of the data set: competition; 500-fold excess against biotin site 14 probe; only weak complex left; LightShift Chemiluminescent EMSA kit (Pierce), 6% native PAGE; binding buffer as in He et al. [23], salt, pH and temperature not given. Conditions: protein: recombinant; tags: His in the Results; label: none.

B1: tal1 site 14 mutant competitor (TAATTA to TCGATA) (dsDNA)
DNA 1: ACGCAGATCATCGATAGGCGTTTGATC
DNA 2: GATCAAACGCCTATCGATGATCTGCGT
Regarding B1, in data set [1], the binding result is “no binding”.

B2: tal1 binding site 12 probe (dsDNA)
DNA 1: TGGCCGCATAATTAATTTCTGATTGAG
DNA 2: CTCAATCAGAAATTAATTATGCGGCCA
Consider B2, for which, in data set [2], the binding result is “binds”.

B3: tal1 site 12 mutant competitor (TAATTA to TCGATA) (dsDNA)
DNA 1: TGGCCGCATCGATCGATTCTGATTGAG
DNA 2: CTCAATCAGAATCGATCGATGCGGCCA
For B3, the binding result in data set [3] is listed as “no binding”.

B4: tal1 site 12 unlabeled wild-type competitor (dsDNA)
DNA 1: TGGCCGCATAATTAATTTCTGATTGAG
DNA 2: CTCAATCAGAAATTAATTATGCGGCCA
In the case of B4, the binding result in data set [4] is on record as “binds”.

B5: tal1 binding site 14 probe (dsDNA)
DNA 1: ACGCAGATCATAATTAGGCGTTTGATC
DNA 2: GATCAAACGCCTAATTATGATCTGCGT
In the case of B5, the binding result in data set [2] is on record as “binds”.

B6: tal1 site 14 unlabeled wild-type competitor (dsDNA)
DNA 1: ACGCAGATCATAATTAGGCGTTTGATC
DNA 2: GATCAAACGCCTAATTATGATCTGCGT
Consider B6, for which the binding result in data set [5] is given as “binds”.
